Experiment: yeast display, Sf9 membrane polyspecificity reagent, FACS + sequencing; frameworks hold sequencing errors
Summary of the method: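 In a synthetic yeast display library (Saccharomyces cerevisiae BJ5465), nanobody expression was induced with galactose for 36–48 hours. FACS gates were set low and high (top ~1%) using anti-HA fluorescence for expression and streptavidin fluorescence for binding of the Sf9 membrane reagent. Each polyreactivity label is drawn from the gate of origin.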

Row | Sequence | polyreactivity (PSR sort gate)
1 | QVQLVESGGGLVQAGGSLRLSCAASGYTFYFYAMGWYRQAPGKEREFVAAIRSSGGRTYYADSVKGRFTISRDNAKNTVYLQMNSLKPEDTAVYYCAAAGYYYSVDGAGPRYDYWGQGTQVTVSS | low polyreactivity
2 | QVQLVESGGGLVQAGGSLRLSCADSGYTFVYNAMGWYRQPPGKEREFVAAITWSGTSTRYADSVKGRFTISRDNAKNTVYLQMNSLKPEDTAVYYCAALGSGVPRYYYWGQGTQVTVSS | high polyreactivity
3 | QDQHVESGGGLVHAGGSLRLSCAASGRIFKVYAMGWYRQPPGKERQLVASIRWNTGSTYYADSVKGRFTISRDNAKNTVYLQMNSLKPEDTAVYYCNSRGYYQGRYGYWGQGTQVTVSS | high polyreactivity
4 | QVQLVESGGGLVQAGGSLRISCAASGSTFSRNVMGWYRQAPGKERELVAAISRGGSTNYADSVKGRFTISRDNAKKTVYLQMNSLKTEVTAVYYCNAPRLGKFYYWGQGTQVTVSS | low polyreactivity
5 | QGQLVESRGGLVQAGGSLRLSCAASGFNLAYYAMGWYRQAPGKERELVAAISIGSSTDYADSVKGRFTISRDNAKNTVYLQMNSLKPEDTAVFYCAKRGPQVWTFDYDSWGQGTQVTVSS | low polyreactivity
6 | QVQLVESGGGLVQAGGSLRLSCAASGGTFKYYAMGWYRQAPGKERELVADITSGGSTNYADYVKGRFTISRDNAKNTVYLQMNSLKPEDTAVYYCAKRRYWVKYDYWGQGTQVTVSS | high polyreactivity
7 | QVQLVESGGGLVQAGGSLSLSCAASGSTIGPNAMGWYRQAPGKERDLVAAINTRGGSTYYADSVKGRFTISRDHANNTVYLQMNSLKPEDTAVYYCAAEYVVWYLDRFNYWGQGTQVTVSS | high polyreactivity
8 | QVQLVESGGGLVQAGGSLRLSCAASGSTFLTNTMGWYRQAPGKERELVAIISRSSGTTYYSDSVKGRFTISRDNAKNTVYLQMNSLKPEDTAVYYCAKRYRRAYPYSKNDYWGQGTQVTVSS | high polyreactivity
9 | QVQHVESGGGLVQAGGSLRLSCAASGGIFSIYTRGWYRQAPGKERELVAAITSGGNTNYADSVKGRFTISRDNAKNTVYLQMNSLKPEDTAVYYCAKTYTEYSVTRSGARMDYWGQGTQVTVSS | low polyreactivity
10 | QVQLVESGGGLVQAGGSLRLSCAASGGTFLRNAMGWYRQAPGKERELVAAISARGGSTRYADSVKGRFTISRDNAKNTVYLQMNSLKPEDTAVYYCDATSSHHRRMEYWGQGTQVTVSS | high polyreactivity
11 | QVQLVESGGGLVQAGGSLRLSCAASGRIFLYNTMGWYRQAPGKERELVARISWSGGSTKYADSVKGRFTISRDNAKNTVYLQMNSLKPEDTAVYYCNAGYFTEYNSWGQGTQVTVSS | high polyreactivity
12 | QDQLLESGGGLVQAGGSLRLSCAASGFTFYRYAMGWYRQAPGKERELVASISKSCGSTYYADSVKGRFTISRDNAKNTVYLQMNSLKPEDTAVYYCAADVDYPYGYWGQGTQVTVSS | low polyreactivity
13 | QVQLVESGGGLVQAGGSLRLSCAASGFIFFRYAMGWYRQAPGKERELVAAISTRTGITYYSDSVKGRFTISRDNAKNNVYLQMNRLKPEDTAVYDRNVLRSHSLYPFWKYDYWGQGTQVTVSS | high polyreactivity
14 | QVQLVESGGGLVQAGGILRLSCAASGIIYQRNAMGCYRQAPGKERQLVASITAGGDTTYYADSVKGRFTISRDNAKNTVYLQMNSLKPEDTAVYYCAVDSWLDDDDSYPDSILVDYWGQGTQVTVSS | low polyreactivity
15 | QFQLVESGGGLVQAGVSLRLICAASVSTFGYNAMGWYRQAPGKERELVPANNGRGGGTYYADSVKGRFTISRDNAKNTVYLQINSLKPEDTAVYYCAKLRRAGTGRGSHVYRQSDYWGQGTQVTVSS | high polyreactivity
16 | QVQLVESGGGLVQAGGSLRLSCAASGFTFGRYGMGWYRQAPGKDREFVAAITGRTGTTYYADSVKGRFTISRDNAKNTVYLQMNSLKPEDTAVYYCAARGQYRSSRYPYYHWGQGTQVTVSS | high polyreactivity
17 | QVQLVESGGGLVQAGGSLRLSCAASGTFKWYAMGWYRQAPGKERELVAVISSSGGTTYYADSVKGRFTISRDTAKITVYLQMNSLKPEDTAFYYCNAAKLFRYDYWGQGTQVTVSS | high polyreactivity
18 | QVQLVESGGGLVQAGGSLRLSCAASGLTFSLYAMAWYRQAPGNESELVAANSWTGGSTYYADSVKGRFTISRDNAKNTVYLHMNSLKPEDTAVYYCNARYTLFARYGYDYWGQGTQVTVSS | low polyreactivity
19 | QVQLVVSGGGLVQAGGSLRLSCAASGLTFWKYTLGWYRQAPGKEREWVAAMSISGTNTYYADSVKGRFTISRDNAKNTVYLQMNSLKPEDTAVYYCAAVRGYPPTNYYYCGQGTQVTVSS | high polyreactivity
20 | QVQLVESGGGFVQAGGSLRLSCAASGFIFWLNAMGWYRQAPGKERELVAASSIGGRTNYADSVKGRFTISRDNAKNTVYLQMNSLTPEDTAVYFCNNDYRSVYKGRGFDYWGQGTQVTVSS | low polyreactivity
21 | QVQLVESGGGLVQAGGSLRLSCAAYGYIFLRNAMGWYRQAPGKERELVAAIRRTGGSTYYADSVKGRFTISRDNAKNTVYLQMNSLKPEDTAVYYCAKRSYTGYEYWGQGTQVTVSS | low polyreactivity
22 | QVQLVESGGGLVQAGGSLRLSCAASGFIFDTYAMGWYRQAPGKERDLVAVISSGGSTYYADSVKGRVTISRDNAKNTVYLQMNSLKPEDTAVYYCAADSGYLGIYGDDYSWGQGTQVSVSS | low polyreactivity

Row | Sequence | polyreactivity (PSR sort gate)
23 | QVQLVESGGGLVQAGGSLRLSCAASGITFYDNAMGWYRPAPGKEWELVAGISYDGDSTYADSVKGRFTISRDNAKNTVYLQINSLKPEDTAVYYCAALGPYDWLWAGDYWGQGTQVTVSS | low polyreactivity
24 | QVQLVESGGGLVQAGGSLRLSCAASGRIFDVYEMGWYRQAPGKERELVAAMTWSGTSTYYADSVKGRFTISRDNAKNTVYLQMNSLKPEDTAVYYCNALSYGRYLNYRGGMDYWGQGTQVTVSS | high polyreactivity
25 | QVQLVESGGGLVQAGGSHRLSCAASGRILVRYAMGCYRHAPGKERELVAAISRGGSTTYADSVKGRFTISRDNAKNTVYLQMNSLKPEDTAFYYCAAGRYPYNRDYWGQGTQVTVSS | high polyreactivity
26 | QVQLVESGGGLVQAGGSLRLTCAASGFIYPYYAMGWYRQATGKERELVATNTRSGGSTYYADSVKGRFTISLDNAKNNVYLQMNSVKQEDSAVYSCAADIYWYRGYGFWGQGTQVTVSS | high polyreactivity
27 | QVQLVDSGGGLVQAGGSLSLSCAASGSTFTWYAMGWYIQAPGKERELVAASRWSGGNTYYADSVKGRFTISRDNAKHTVYLQMNSLKPEDPAVYYCAARLYTAADHYNDWGQGTQVTGSS | high polyreactivity
28 | QVQLVESGGGLVQAGGSLRLSCAGSGHIFPYNAMGWYRQGPGKEREFVAAISFRGGSRYYADSEKGRFTISRDNAKNTVYLQMNSLKPEDTAVYYCAKRSYPWGQGTQVTVSS | low polyreactivity
29 | QVQLVESGGGLVQAGGSLRLSCAASGSIFSYNAMGWDRQAPGKESELVAAITSGGGTNYADSVKGRFTISRDNAKNTVYLQINSLKPEDTAVYYCNAVPNYYDYDSWGQGTQVTVSS | high polyreactivity
30 | QVQLVESGGGLVQAGGSLRLTCAASGITFKYKAMGWYRQAPGKEWELVAAISKGGGSTYYADSVKGRFTISRDNAKNTVYLQMNSLKPEVTAVYYCNAVPRRPVVSDTNPVGYDYWGEGTQVTVSS | low polyreactivity
31 | QVQLVESGGGLVQEGGSLRLICAASGRTFYKNAMGWYRPAPAKERELVAAISSRGGRTTYADSLKGRYTISRDNAKNTVYLQMNSLKTEDTAVYYCAADWEYDYWGQGTHVTVSS | high polyreactivity
32 | QVQLVESRGGLVQAGGSLRLSFPASGFTQEFYAMGWYRQAPGKERELVASISSGGRTNYADSVKGRFTISRDNAKYTVYLQMNSLKPEDTAVYYFAAEYRSWGRYRYRFNYWGQGTQVTVSS | high polyreactivity
33 | QVQLVESGGGLVQAGGSLRLSCAASGRIFPGYAMGWYRQAPGKERELVAGITWRTARTYYADSVKGRFTISRDNAKNTVYLQMNSLKPEDTAVYYCAAKYARYGRHVIFDYWGQGTQVTVSS | high polyreactivity
34 | QFQLVESGGGLVQAGGILRLSCAASGFTFRVNAMGWYRQAPGKERELVASITVSDGRTYYADSVKGRFTISRDNAKNTVYLQMNSLKPEDCAVYYCAADYKGAFTTDWSSEYEYWGQGTQVTVSS | low polyreactivity
35 | QVQLVESGGGLVQAGGSLRLSCAASGFIFRWNAMGWYRQSPGKERELVATISNGGSTYYADSVKGRFTISRDNAKNSVYLQMNSLKPEDTAVYYCAADYWYFSISITDYDYWGQGTQVTVSS | high polyreactivity
36 | QVQLVESGGGLVQAGGSLRLSCAYSGRTFYYNTMGWYRQAPGKEREFVATISRIGGSTYYADSVKGRFTISRDNAKNTVYFQMNSLKPEDTAVYYCAKGRSLNGLPPVVYWQLFYYWGQGTLVTVSS | high polyreactivity
37 | QVQLVESGGGLVQAGGRLRLSCAASGRIFVYYAMGWYRQAPGQERELVAAITYSVDSTYYADSVKGRFTISRDNAKNTVYLQMNSLKPEDTAVYYCATDVDWAYGYQYEYWGQGTQVTVSS | low polyreactivity
38 | QVQLVESGGGLVQAGGSLRLTCAASGSTFTAYAMGWYRQAPGKERELVADISDSGGSTYYADSVKGRFTISRDNAKNTVYLQMNSLIPEDTAVYYCAVDVRAYVVSKFDSWGQGTQVTVSS | low polyreactivity
39 | QVQLVESGGGLVQAGGSLRLSCAAYGRIFGPYASGWYIQAPGKERELVAAITLSGGGTYADSVKGRFTISRDNAKNTVYLQMNSLKPEDTAVYYCAADSYRLLNSDTGEFEYNYWGQGSQVTVSS | low polyreactivity
40 | QVQLVESGGGLVQAGGSLRLSCAASGIISYLYAMGWYRQAPGKERELVAVIRTSDAITYYADSVKGRFTISRDNAKNTVYLQMNSLKPEDTAVYYCAAEDVYEYDYWGQGTQVTVSS | high polyreactivity
41 | QVQLVESGGGLVQAGGSLRLSCAASGSTFRSYAMGWYRQAHGKERELVAAITSGGSTYYADSVKGRFTISRDNAKNTVYLQMNSLKPEDTAVYYCNARRRTRNVPGKRLRGGIYVYWGQGTQVTVSS | high polyreactivity
42 | QVQLVESGGGLVQAGGSLRLSCAASGFTFGHYAMGWYRQAPGKERELVAAISIDGGRTYYADSVKGRFTISRDNAKNTVYLQMNSLKPEDTAVYYCAAAVAGRKMGYWGQGTQVTVSS | high polyreactivity
43 | QVQLVESGGGLVQAGGSLRLSCAASGRTFRAYVMGWYRQAPGKERELVAAISGRGGSTYYADSVKGRFTSSRDNAKNTVYLQMNSLKPEDTAVYYCNAVQLSQRPHDYWGQGTQVTVSS | high polyreactivity
